The text below walks through data of publication PMC5815892 (Clinical cancer research : an official journal of the …, 2017).

For experiment [1], the target named is purified fibulin-3 (human) (Homo sapiens (Human)., UniProt Q12805). Description: SPR.
The target in experiment [2] is T1, free DSL-like peptide from human fibulin-3 (Thr25-Glu47) (Homo sapiens (Human).).
T1 chain: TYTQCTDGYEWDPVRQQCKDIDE
Description: ELISA.

purified fibulin-3 (human), sequence (Q12805 18-493): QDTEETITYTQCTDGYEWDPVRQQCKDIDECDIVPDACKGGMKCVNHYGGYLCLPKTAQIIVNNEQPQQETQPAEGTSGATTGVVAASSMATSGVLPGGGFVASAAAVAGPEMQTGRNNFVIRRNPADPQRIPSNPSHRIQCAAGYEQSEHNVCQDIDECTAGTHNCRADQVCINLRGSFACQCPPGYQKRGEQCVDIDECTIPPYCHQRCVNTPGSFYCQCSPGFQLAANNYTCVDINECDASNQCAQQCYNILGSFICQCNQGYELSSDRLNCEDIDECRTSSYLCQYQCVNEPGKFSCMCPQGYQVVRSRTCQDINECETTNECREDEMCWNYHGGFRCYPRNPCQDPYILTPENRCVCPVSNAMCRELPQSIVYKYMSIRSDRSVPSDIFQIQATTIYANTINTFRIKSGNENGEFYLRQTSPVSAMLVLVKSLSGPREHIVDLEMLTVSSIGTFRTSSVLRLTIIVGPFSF

B1: mAb428.2 (anti-fibulin-3 clone mAb428.2.3C11.H11.G3) (antibody, V domains shown)
VH: QIQLVQSGPELKKPGETVKISCKASGYSFTTYGMSWVKQAPGKGLKWMGWINTYSGVPTYADDFKGRFAFFLETSASTAYLQINNLKNEDTATYFCARWVDYWGQGTTLTVSS
VL: DIKMTQSPSSMYASLGERVTITCKASQDIKSYLSWHQQKPWKSPKTLIYYATSLADGVPSRFSGSGSGQDYSLTISSLESDDTATYYCLQHGKSPYTFGGGTKLEIK
B1: the Kd in experiment [1] is 5 ± 1 nM. Also, the binding result in experiment [2] is “binds”.

By Kd is commonly meant a measure of binding affinity in units of concentration. Lower therefore signals higher affinity.
